Experimental data: patent US20240293512A1 (HANMI PHARM, published 2024)
Bridge positions count the residues as written; N and C are the ends. Square brackets hold non-standard residues; d marks the D form. Ends that are not written are not given here. * marks the point of attachment. Acetyl(2-(4-imidazolyl)) = O=C(Cc1c[nH]cn1)*; Aib = CC(C)(N)C(=O)O

T1: human GIP receptor (human, UniProt P48546 22-466)
T1 sequence (looked up): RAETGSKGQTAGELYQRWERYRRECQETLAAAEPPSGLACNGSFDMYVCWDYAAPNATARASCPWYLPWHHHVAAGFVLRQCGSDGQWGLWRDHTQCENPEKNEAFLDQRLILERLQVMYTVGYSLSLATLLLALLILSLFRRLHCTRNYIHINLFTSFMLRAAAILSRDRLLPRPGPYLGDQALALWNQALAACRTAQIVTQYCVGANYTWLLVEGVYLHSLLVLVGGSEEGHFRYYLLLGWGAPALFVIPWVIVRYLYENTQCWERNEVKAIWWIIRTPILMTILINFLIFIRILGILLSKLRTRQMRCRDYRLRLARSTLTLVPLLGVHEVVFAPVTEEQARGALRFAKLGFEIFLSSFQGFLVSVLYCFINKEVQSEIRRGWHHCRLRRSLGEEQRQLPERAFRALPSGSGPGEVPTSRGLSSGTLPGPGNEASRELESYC

B1: triple agonist of SEQ ID NO: 3 (peptide)
peptide: H[Aib]QGTFTSDVSSYLLGQAAKQFIAWLVKGGGPSSGAPPPSC
B2: triple agonist of SEQ ID NO: 29 (peptide)
peptide: H[Aib]QGTFTSDYSKYLDEKAAKEFVQWLLNTC
modifications: bridge 16-20
B3: triple agonist of SEQ ID NO: 101 (peptide)
peptide: Y[Aib]QGTFTSDYSKALDEKAAKEFVNWLLDQHPSSGQPPPSC
modifications: bridge 16-20
B4: triple agonist of SEQ ID NO: 16 (peptide)
peptide: [Acetyl(2-(4-imidazolyl))]GQGTFTSDLSKQMDSEAQQLFIEWLKNGGPSSGAPPPSHG
B5: triple agonist of SEQ ID NO: 12 (peptide)
peptide: [Acetyl(2-(4-imidazolyl))]GEGTFISDLSKYMDEQAVQLFVEWLMAGGPSSGAPPPSHG
B6: triple agonist of SEQ ID NO: 20 (peptide)
peptide: [Acetyl(2-(4-imidazolyl))]GQGTFTSDLSIQYEEEAQQDFVEWLKDTGPSSGAPPPSHG
B7: triple agonist of SEQ ID NO: 99 (peptide)
peptide: Y[Aib]QGTFTSDYSKALDEKAAKDFVNWLLDHHPSSGQPPPSC
modifications: bridge 16-20
B8: triple agonist of SEQ ID NO: 18 (peptide)
peptide: [Acetyl(2-(4-imidazolyl))]GQGTFTSDLSKQMDSERAREFIEWLKNTGPSSGAPPPSHG
B9: triple agonist of SEQ ID NO: 30 (peptide)
peptide: H[Aib]QGTFTSDYSKYLDEKAQKEFVQWLLDTC
modifications: bridge 16-20
B10: triple agonist of SEQ ID NO: 27 (peptide)
peptide: H[Aib]QGTFTSDYSKYLDERACQDFVQWLLDQGGPSSGAPPPS
B11: triple agonist of SEQ ID NO: 98 (peptide)
peptide: Y[Aib]QGTFTSDYSKALDEKAAKEFVNWLLDHHPSSGQPPPSC
modifications: bridge 16-20
B12: triple agonist of SEQ ID NO: 28 (peptide)
peptide: H[Aib]QGTFTSDYSKYLDEKRAQEFVCWLLAQKGKKNDWKHNIT
B13: triple agonist of SEQ ID NO: 102 (peptide)
peptide: Y[Aib]QGTFTSDYSKALDEKAAKDFVNWLLDQHPSSGQPPPSC
modifications: bridge 16-20
B14: triple agonist of SEQ ID NO: 24 (peptide)
peptide: Y[Aib]QGTFTSDYSKYLDECRAKEFVQWLKNGGPSSGAPPPS
modifications: bridge 16-20

Target: T1, human GIP receptor
Assay: cell-based or functional assay

Row | Binder | In vitro activity compared with native peptide (%) vs GIP (cAMP EC50)
1 | B1 | < 0.1%
2 | B2 | < 0.1%
3 | B3 | 40.1%
4 | B4 | < 0.1%
5 | B5 | < 0.1%
6 | B6 | < 0.1%
7 | B7 | 57.7%
8 | B8 | < 0.1%
9 | B9 | 0.8%
10 | B10 | 0.9%
11 | B11 | 47.1%
12 | B12 | < 0.1%
13 | B13 | 58%
14 | B14 | < 0.1%

Target: human GCG receptor (human, UniProt P47871 26-477)
Assay: cell-based or functional assay

Chain of human GCG receptor (P47871 26-477): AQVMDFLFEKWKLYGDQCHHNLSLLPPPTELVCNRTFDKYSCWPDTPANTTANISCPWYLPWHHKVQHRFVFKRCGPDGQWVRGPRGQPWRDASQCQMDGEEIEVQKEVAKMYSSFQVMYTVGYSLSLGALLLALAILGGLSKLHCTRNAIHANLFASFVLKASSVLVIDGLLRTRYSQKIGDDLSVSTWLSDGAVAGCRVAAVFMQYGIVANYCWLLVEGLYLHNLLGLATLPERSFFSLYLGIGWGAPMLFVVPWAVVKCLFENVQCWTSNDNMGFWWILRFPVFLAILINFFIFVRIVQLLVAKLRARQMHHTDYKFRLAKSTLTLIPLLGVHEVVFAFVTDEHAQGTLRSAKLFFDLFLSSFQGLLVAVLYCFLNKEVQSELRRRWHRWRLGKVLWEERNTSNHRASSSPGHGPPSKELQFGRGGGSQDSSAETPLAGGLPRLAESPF

Row | Binder | In vitro activity compared with native peptide (%) vs Glucagon (cAMP EC50)
15 | B1 | < 0.1%
16 | B2 | 6%
17 | B3 | 13.9%
18 | B4 | < 0.1%
19 | B5 | < 0.1%
20 | B6 | < 0.1%
21 | B7 | 14.9%
22 | B8 | < 0.1%
23 | B9 | 0.7%
24 | B10 | 0.8%
25 | B11 | 8.2%
26 | B12 | 1.6%
27 | B13 | 29.5%
28 | B14 | 9.3%

Target: human GLP-1 receptor (human, UniProt P43220 24-463)
Assay: cell-based or functional assay

Row | Binder | In vitro activity compared with native peptide (%) vs GLP-1 (cAMP EC50)
29 | B1 | 1.8%
30 | B2 | 38.5%
31 | B3 | 23.2%
32 | B4 | 2.1%
33 | B5 | 0.4%
34 | B6 | < 0.1%
35 | B7 | 20.9%
36 | B8 | < 0.1%
37 | B9 | 142%
38 | B10 | 83.1%
39 | B11 | 28.1%
40 | B12 | 17.2%
41 | B13 | 23.3%
42 | B14 | 41.2%
